{
  "source": "patent US10994047B2",
  "about": "“Peptide dendrimers comprising fibrinogen-binding peptides” (HAEMOSTATIX LIMITED, priority 2014, dated 2021)",
  "key": {"[1]": {"target": "T1, fibrinogen hole 'a' and hole 'b' (Homo sapiens, UniProt P02675+P02679)", "T1 sequence (P02679 27-433 limits assumed)": "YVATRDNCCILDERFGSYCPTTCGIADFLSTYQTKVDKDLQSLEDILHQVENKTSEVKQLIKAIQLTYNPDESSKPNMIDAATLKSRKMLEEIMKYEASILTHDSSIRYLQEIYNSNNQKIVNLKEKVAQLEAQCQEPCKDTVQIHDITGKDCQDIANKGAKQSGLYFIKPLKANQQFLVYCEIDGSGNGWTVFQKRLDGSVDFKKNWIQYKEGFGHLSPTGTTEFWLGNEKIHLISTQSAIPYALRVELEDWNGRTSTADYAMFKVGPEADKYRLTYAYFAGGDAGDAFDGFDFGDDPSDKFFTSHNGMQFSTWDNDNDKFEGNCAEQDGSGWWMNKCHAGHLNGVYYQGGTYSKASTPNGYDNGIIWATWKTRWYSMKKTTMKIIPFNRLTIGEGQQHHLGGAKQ", "T1 sequence (P02675 31-491)": "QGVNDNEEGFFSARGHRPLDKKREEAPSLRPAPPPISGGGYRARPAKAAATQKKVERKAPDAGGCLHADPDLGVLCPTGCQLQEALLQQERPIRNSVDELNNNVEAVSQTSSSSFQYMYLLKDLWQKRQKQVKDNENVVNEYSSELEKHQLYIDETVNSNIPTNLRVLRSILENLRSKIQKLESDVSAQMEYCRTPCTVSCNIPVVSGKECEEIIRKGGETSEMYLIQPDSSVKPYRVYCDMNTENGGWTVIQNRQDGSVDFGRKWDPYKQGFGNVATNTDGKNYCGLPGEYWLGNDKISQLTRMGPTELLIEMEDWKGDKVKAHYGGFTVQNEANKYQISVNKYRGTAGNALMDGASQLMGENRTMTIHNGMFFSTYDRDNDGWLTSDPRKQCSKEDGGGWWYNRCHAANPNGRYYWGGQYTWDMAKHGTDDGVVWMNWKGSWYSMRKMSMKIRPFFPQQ", "T1 sequence (P02671 20-629 partner limits assumed)": "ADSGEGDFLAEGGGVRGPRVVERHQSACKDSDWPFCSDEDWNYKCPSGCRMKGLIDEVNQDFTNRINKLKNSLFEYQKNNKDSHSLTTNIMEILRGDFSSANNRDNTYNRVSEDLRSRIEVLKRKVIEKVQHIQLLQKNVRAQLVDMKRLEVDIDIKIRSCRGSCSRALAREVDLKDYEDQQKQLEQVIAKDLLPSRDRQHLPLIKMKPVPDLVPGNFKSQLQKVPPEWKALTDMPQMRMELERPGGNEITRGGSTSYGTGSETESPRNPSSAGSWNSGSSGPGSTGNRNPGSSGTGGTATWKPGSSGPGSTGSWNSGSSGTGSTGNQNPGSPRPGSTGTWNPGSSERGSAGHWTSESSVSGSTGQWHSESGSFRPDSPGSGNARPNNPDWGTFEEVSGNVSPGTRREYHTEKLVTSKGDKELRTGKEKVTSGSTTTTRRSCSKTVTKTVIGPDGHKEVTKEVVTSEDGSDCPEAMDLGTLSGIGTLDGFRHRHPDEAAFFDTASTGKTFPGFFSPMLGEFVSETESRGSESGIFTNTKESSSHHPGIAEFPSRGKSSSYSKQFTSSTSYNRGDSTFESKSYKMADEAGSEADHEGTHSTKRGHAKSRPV", "conditions": "cited from earlier work"}, "[2]": {"target": "T2, purified human fibrinogen (Homo sapiens, UniProt P02675+P02679)", "T2 sequence (P02679 27-433 limits assumed)": "T1 sequence (P02679 27-433 limits assumed)", "T2 sequence (P02675 31-491)": "T1 sequence (P02675 31-491)", "T2 sequence (P02671 20-629 partner limits assumed)": "T1 sequence (P02671 20-629 partner limits assumed)", "assay": "Copolymerisation of peptide dendrimer with purified fibrinogen, clotting time on KC4 Delta coagulation analyser", "format": "biochemical", "procedure": "The ability of Peptide Dendrimer No. 12 to polymerise fibrinogen was assessed. 30 μl of dendrimer in solution, at concentration ranging from 0.005-2 mg/ml, was added to 100 μl purified human fibrinogen at 3 mg/ml (the level of fibrinogen found in the blood). Polymerisation of fibrinogen was analysed using a Sigma Amelung KC4 Delta coagulation analyser.\nThe ability of Peptide Dendrimer Nos. 4, 5, 10, 11, and 12 to copolymerise with fibrinogen was assessed using the same method described in Example 2. The concentration of each dendrimer was varied from 0.005-0.5 mg/ml.\nThe ability of the dendrimers to copolymerise with fibrinogen was assessed using the same method described in Example 2, for a concentration of each dendrimer ranging from 0.005-0.5 mg/ml."}, "[3]": {"target": "T3, fibrinogen in human plasma (Homo sapiens, UniProt P02675+P02679)", "T3 construct": "from tissue; host or cells: human plasma", "T3 sequence (P02679 27-433 limits assumed)": "T1 sequence (P02679 27-433 limits assumed)", "T3 sequence (P02675 31-491)": "T1 sequence (P02675 31-491)", "T3 sequence (P02671 20-629 partner limits assumed)": "T1 sequence (P02671 20-629 partner limits assumed)", "assay": "Polymerisation of fibrinogen in human plasma, clotting time", "format": "biochemical", "conditions": "37° C.; for ability to polymerise fibrinogen in human plasma: 30 μL dendrimer 0.25 mg/ml added to 100 μL human plasma, FIG. 7", "procedure": "30 μL of each dendrimer (at a concentration of 0.25 mg/ml) was added to 100 μL human plasma at 37° C., and polymerisation of fibrinogen was determined using a Sigma Amelung KC4 Delta coagulation analyzer."}, "human fibrinogen": {"target": "T4, human fibrinogen (Homo sapiens, UniProt P02675+P02679)", "T4 sequence (P02679 27-433 limits assumed)": "T1 sequence (P02679 27-433 limits assumed)", "T4 sequence (P02675 31-491)": "T1 sequence (P02675 31-491)", "T4 sequence (P02671 20-629 partner limits assumed)": "T1 sequence (P02671 20-629 partner limits assumed)", "assay": "Clotting activity of dendrimers extracted from gamma-irradiated gelatin paste", "format": "biochemical", "conditions": "37° C.", "procedure": "2 ml of solution of Peptide Dendrimer No. 12 or 13 was mixed with SURGIFLO Haemostatic Matrix (a hydrated flowable gelatin matrix) to form a paste of each peptide. Each paste was sterilised by irradiation with ^60Co gamma rays at a dose of 30 kGy, and then stored at room temperature. Samples of the sterilised pastes were used for testing after storage for two and four weeks.\nAfter storage, peptide dendrimers were extracted from each paste using 10 mM HEPES buffer. 30 μL of each extract (with a peptide concentration of about 0.25 mg/ml) was added to 100 μL of human fibrinogen at 3 mg/ml, and the ability of each dendrimer to polymerise fibrinogen (the ‘clotting’ activity) at 37° C. was determined using a Sigma Amelung KC4 Delta coagulation analyser. The polymerisation activity of non-irradiated control samples was also determined."}, "[4]": {"conditions": "dendrimer 0.005-0.5 mg/ml, fibrinogen 3 mg/ml, FIG. 2 and 3"}},
  "note": "Where no end group is shown, it is not given here.",
  "data": [
    {"substance": "GHRPY- (SEQ ID NO: 11) (listed as Homo sapiens)", "values": [
      {"measurement": "binding preference for hole 'a' or hole 'b' of fibrinogen", "setting": "[1]", "result": "binds strongly and preferentially to the ‘b’ hole of fibrinogen"}
    ]},
    {"substance": "GPRP- (SEQ ID NO: 1)", "values": [
      {"measurement": "binding preference for hole 'a' or hole 'b' of fibrinogen", "setting": "[1]", "result": "binds strongly and preferentially to the ‘a’ hole of fibrinogen"}
    ]},
    {"substance": "GPRPFPA (listed as Homo sapiens) [GPRPFPA (SEQ ID NO: 3)]", "values": [
      {"measurement": "binding preference for hole 'a' or hole 'b' of fibrinogen", "setting": "[1]", "result": "binds with high preference for hole ‘a’ in fibrinogen"}
    ]},
    {"substance": "GPRPG (SEQ ID NO: 15) ((5)..(5) Carbox-terminal end may comprise an amide group; listed as Homo sapiens)", "values": [
      {"measurement": "binding preference for hole 'a' or hole 'b' of fibrinogen", "setting": "[1]", "result": "binds to hole ‘a’ and hole ‘b’ of fibrinogen, but with some preference for hole ‘a’"}
    ]},
    {"substance": "Peptide Dendrimer No. 8: three-branch dendrimer: two peptides GPRPG, third APFPRPG attached by its amino-terminal end, carboxy-terminal amide (chain 2 APFPRPG-NH2; also: three-branch dendrimer core: two GPRPG, APFPRPG attached by its amino-terminal end; listed as Homo sapiens)", "values": [
      {"measurement": "ability to copolymerise with fibrinogen (clotting time)", "setting": "[2]; [4]", "result": "able to copolymerise with fibrinogen"},
      {"measurement": "ability to polymerise fibrinogen in human plasma", "setting": "[3]", "result": "not able to polymerise fibrinogen in human plasma"}
    ]},
    {"substance": "Peptide Dendrimer No. 9: three-branch dendrimer: two peptides GPRPFPA, third APFPRPG attached by its amino-terminal end, carboxy-terminal amide (chain 2 APFPRPG-NH2; also: three-branch dendrimer core: two GPRPFPA, APFPRPG attached by its amino-terminal end; listed as Homo sapiens)", "values": [
      {"measurement": "ability to copolymerise with fibrinogen (clotting time)", "setting": "[2]; [4]", "result": "very active in copolymerising with fibrinogen"},
      {"measurement": "ability to polymerise fibrinogen in human plasma", "setting": "[3]", "result": "not able to polymerise fibrinogen in human plasma"}
    ]},
    {"substance": "Peptide Dendrimer No. 10: three-branch dendrimer, three GPRPG peptides each attached by carboxy-terminal end to the branched core (also: three copies of chain 1 attached by C-termini to a branched core; listed as Homo sapiens)", "values": [
      {"measurement": "clotting times compared between dendrimers", "setting": "[2]; concentrations below ~0.125 mg/ml dendrimer, FIG. 2", "result": "faster clotting times than dendrimer no. 4"},
      {"measurement": "ability to polymerise fibrinogen in human plasma", "setting": "[3]", "result": "able to polymerise fibrinogen in human plasma"}
    ]},
    {"substance": "Peptide Dendrimer No. 12: five-arm dendrimer, GPRPG- peptides; branched core with five consecutive lysine residues linked through side chains (chain KKKKK; also: five-arm dendrimer of GPRPG on core of five lysines linked through side chains, attachment places not given here)", "values": [
      {"measurement": "ability to copolymerise with fibrinogen (clotting time)", "setting": "[2]; dendrimer 0.005-2 mg/ml, 100 μl purified human fibrinogen 3 mg/ml, FIG. 1", "result": "able to copolymerise with fibrinogen almost instantaneously"},
      {"measurement": "clotting", "setting": "[2]; dendrimer range ~0.02-0.5 mg/ml, FIG. 2", "result": "almost instantaneous clotting"},
      {"measurement": "ability to polymerise fibrinogen in human plasma", "setting": "[3]", "result": "able to polymerise fibrinogen in human plasma"},
      {"measurement": "clotting time in human plasma", "setting": "[3]; dendrimer 0.25 mg/ml, human plasma", "result": "less than one"},
      {"measurement": "Clotting activity, Non-irradiated control", "setting": "human fibrinogen; extract from gelatin paste, about 0.25 mg/ml peptide, human fibrinogen 3 mg/ml, not irradiated", "result": 1, "unit": "s"},
      {"measurement": "Clotting activity, Storage for 2 weeks post irradiation", "setting": "human fibrinogen; paste irradiated 30 kGy 60Co gamma, stored 2 weeks at room temperature, extract about 0.25 mg/ml, fibrinogen 3 mg/ml", "result": 1, "unit": "s"},
      {"measurement": "Clotting activity, Storage for 4 weeks post irradiation", "setting": "human fibrinogen; paste irradiated 30 kGy 60Co gamma, stored 4 weeks at room temperature, extract about 0.25 mg/ml, fibrinogen 3 mg/ml", "result": 1, "unit": "s"}
    ]}
  ]
}
